Measured values as given in paper PMC6805999, “Molecular Mechanism of SR Protein Kinase 1 Inhibition by the Herpes Virus Protein ICP27” (mBio, 2019).
Square brackets hold non-standard residues; d marks the D form. Ends that are not written are not given here.

B1: synthetic peptide of ICP27 103-155, dimethylated on R138, R148 and R150 (peptide)
peptide: SVWSRLGARRPSCSPEQHGGKVARLQPPPTKAQPA[ADMA]GGRRGRRRG[ADMA]G[ADMA]GGPGA
notes: HSV-1 ICP27, residues 103 to 155; also called methylated ICP27^103–155; methylated ICP27^103–155 peptide; source: synthetic peptide (Peptide Protein Research)
B2: synthetic peptide of ICP27 103-155, unmodified (peptide)
peptide: SVWSRLGARRPSCSPEQHGGKVARLQPPPTKAQPARGGRRGRRRGRGRGGPGA
notes: also called unmodified ICP27^103–155; nonmethylated ICP27^103–155 peptide; source: synthetic peptide (Peptide Protein Research)

Experiments:
[1] = target: SRPK1 (Homo sapiens) (UniProt Q96SB4); conditions: cited from earlier work
[2] = target: T1, GB1-SRPK1 (full-length SRPK1 with N-terminal GB1 solubility tag) (Homo sapiens, UniProt Q96SB4); assay: Isothermal titration calorimetry (ITC) of ICP27 peptides with GB1-SRPK1; assay type: binding; conditions: 25°C, 10 μM GB1-SRPK1 in cell, 120 μM peptide in syringe, 20 mM HEPES, 150 mM NaCl, 1 mM TCEP pH 7.4, single-site model, mean of 3 runs (± SD)
T1 construct: His tag; made in house; host or cells: E. coli BL21-CodonPlus (DE3)-RP
Description: The RGG box in full-length ICP27 (Fig. 1A) was previously identified by mutagenesis experiments as the segment necessary for interaction with SRPK1 ([27]), with the binding modulated by arginine methylation ([51]). […] To further confirm and map the RGG box interaction with SRPK1, we expressed and purified ^15N-labeled ICP27^103–155 and using the established backbone assignment ([55]) carried out nuclear magnetic resonance (NMR) signal perturbation mapping by comparison of ^1H-^15N correlation spectra in the presence and absence of unlabeled GB1-SRPK1 (Fig. 1E). […] These solution data together confirmed that SRPK1 binds with high affinity to a relatively short region of ICP27 containing the RGG box, with possible further contributions from nearby residues 112 to 121, whereas other residues retain significant flexibility when the peptide is bound. […]
GB1-SRPK1 and ICP27 peptides were placed into Slide-a-Lyzer G2 cassettes (Thermo Fisher) and dialyzed within identical buffer consisting of 20 mM HEPES, 150 mM NaCl, and 1 mM TCEP [Tris(2-carboxyethyl)phosphine hydrochloride] […] Protein concentrations were measured by absorbance at 280 nm using extinction coefficients ([67]) of 86,580 M^−1 cm^−1 and 5,500 M^−1 cm^−1 for GB1-SRPK1 and ICP27^103–155, respectively. […]

[3] = target: T2, full-length SRPK1 tagged with an N-terminal GB1 solubility tag (human, UniProt Q96SB4 1-655); assay: ITC; 10 μM GB1-SRPK1 in the sample cell, 120 μM ICP27 peptide in the syringe; 25°C; 20 mM HEPES, 150 mM NaCl, 1 mM TCEP, pH 7.4; single-site binding model; conditions: both partners purified
T2 construct: serine-arginine protein kinase 1 (SRPK1), human, full length; probably also carries a His tag used for purification; also called GB1-SRPK1; serine-arginine protein kinase 1; source: E. coli, purified (GST or His tag purification, size exclusion chromatography); not shown: GB1, N-terminal, kept
T2 sequence (Q96SB4 whole entry): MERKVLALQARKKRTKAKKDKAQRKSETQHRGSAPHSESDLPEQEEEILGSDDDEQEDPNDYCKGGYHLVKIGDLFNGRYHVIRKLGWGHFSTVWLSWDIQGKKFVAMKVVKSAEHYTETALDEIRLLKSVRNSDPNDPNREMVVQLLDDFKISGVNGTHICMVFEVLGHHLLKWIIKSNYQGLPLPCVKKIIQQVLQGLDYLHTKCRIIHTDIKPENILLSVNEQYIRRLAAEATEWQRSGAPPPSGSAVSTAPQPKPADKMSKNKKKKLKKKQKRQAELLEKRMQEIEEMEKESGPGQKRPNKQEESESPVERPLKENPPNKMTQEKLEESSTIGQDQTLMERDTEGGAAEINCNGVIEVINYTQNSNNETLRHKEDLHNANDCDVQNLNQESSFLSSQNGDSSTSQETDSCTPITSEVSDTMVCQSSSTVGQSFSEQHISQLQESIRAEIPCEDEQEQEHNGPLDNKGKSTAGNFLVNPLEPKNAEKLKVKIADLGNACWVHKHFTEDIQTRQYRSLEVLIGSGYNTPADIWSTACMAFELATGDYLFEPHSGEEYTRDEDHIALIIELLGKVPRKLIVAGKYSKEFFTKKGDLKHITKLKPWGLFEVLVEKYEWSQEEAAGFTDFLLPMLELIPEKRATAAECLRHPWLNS

T1 sequence (Q96SB4 whole entry): as above
Chain of SRPK1 (Homo sapiens) (Q96SB4 whole entry): as above

Molecule | Kd [2] | Kd [3] | also measured
SRSF1 (from UniProt Q07955) | – | – | Kd [1]: 50 nM
CC(C)C[C@H](NC(=O)[C@H](CCCNC(=N)N)NC(=O)[C@H](CO)NC(=O)[C@H](Cc1c[nH]c2ccccc12)NC(=O)[C@@H](NC(=O)[C@@H](N)CO)C(C)C)C(=O)NCC(=O)N[C@@H](C)C(=O)N[C@@H](CCCNC(=N)N)C(=O)N[C@@H](CCCNC(=N)N)C(=O)N1CCC[C@H]1C(=O)N[C@@H](CO)C(=O)N[C@@H](CS)C(=O)N[C@@H](CO)C(=O)N1CCC[C@H]1C(=O)N[C@@H](CCC(=O)O)C(=O)N[C@@H](CCCNC(=N)N)C(=O)N[C@@H](Cc1c[nH]cn1)C(=O)NCC(=O)NCC(=O)N[C@@H](CCCCN)C(=O)N[C@H](C(=O)N[C@@H](C)C(=O)N[C@@H](CCCNC(=N)N)C(=O)N[C@@H](CC(C)C)C(=O)N[C@@H](CCC(N)=O)C(=O)N1CCC[C@H]1C(=O)N1CCC[C@H]1C(=O)N1CCC[C@H]1C(=O)N[C@H](C(=O)N[C@@H](CCCCN)C(=O)N[C@@H](C)C(=O)N[C@@H](CCC(N)=O)C(=O)N1CCC[C@H]1C(=O)N[C@@H](C)C(=O)N[C@@H](CCCNC(=N)N)C(=O)NCC(=O)NCC(=O)N[C@@H](CCCNC(=N)N)C(=O)N[C@@H](CCCNC(=N)N)C(=O)NCC(=O)N[C@@H](CCCNC(=N)N)C(=O)N[C@@H](CCCNC(=N)N)C(=O)N[C@@H](CCCNC(=N)N)C(=O)NCC(=O)N[C@@H](CCCNC(=N)N)C(=O)NCC(=O)N[C@@H](CCCNC(=N)N)C(=O)NCC(=O)NCC(=O)N1CCC[C@H]1C(=O)NCC(=O)N[C@@H](C)C(=O)O)[C@@H](C)O)C(C)C [ICP27^103–155] | 93.9 nM | – | –
CC(C)C[C@H](NC(=O)[C@H](CCCNC(=N)N)NC(=O)[C@H](CO)NC(=O)[C@H](Cc1c[nH]c2ccccc12)NC(=O)[C@@H](NC(=O)[C@@H](N)CO)C(C)C)C(=O)NCC(=O)N[C@@H](C)C(=O)N[C@@H](CCCNC(=N)N)C(=O)N[C@@H](CCCNC(=N)N)C(=O)N1CCC[C@H]1C(=O)N[C@@H](CO)C(=O)N[C@@H](CS)C(=O)N[C@@H](CO)C(=O)N1CCC[C@H]1C(=O)N[C@@H](CCC(=O)O)C(=O)N[C@@H](CCCNC(=N)N)C(=O)N[C@@H](Cc1c[nH]cn1)C(=O)NCC(=O)NCC(=O)N[C@@H](CCCCN)C(=O)N[C@H](C(=O)N[C@@H](C)C(=O)N[C@@H](CCCNC(=N)N)C(=O)N[C@@H](CC(C)C)C(=O)N[C@@H](CCC(N)=O)C(=O)N1CCC[C@H]1C(=O)N1CCC[C@H]1C(=O)N1CCC[C@H]1C(=O)N[C@H](C(=O)N[C@@H](CCCCN)C(=O)N[C@@H](C)C(=O)N[C@@H](CCC(N)=O)C(=O)N1CCC[C@H]1C(=O)N[C@@H](C)C(=O)N[C@@H](CCCNC(=N)N(C)C)C(=O)NCC(=O)NCC(=O)N[C@@H](CCCNC(=N)N)C(=O)N[C@@H](CCCNC(=N)N)C(=O)NCC(=O)N[C@@H](CCCNC(=N)N)C(=O)N[C@@H](CCCNC(=N)N)C(=O)N[C@@H](CCCNC(=N)N)C(=O)NCC(=O)N[C@@H](CCCNC(=N)N(C)C)C(=O)NCC(=O)N[C@@H](CCCNC(=N)N(C)C)C(=O)NCC(=O)NCC(=O)N1CCC[C@H]1C(=O)NCC(=O)N[C@@H](C)C(=O)O)[C@@H](C)O)C(C)C [methylated ICP27^103–155] | 261 nM | – | –
B1 | – | 262 ± 21 nM | –
B2 | – | 94 ± 23 nM | –
